{"source": "the DeepSol protein solubility set"}
{"experiment": "soluble on expression in E. coli; label from the status in PepcDB or PDB records"}
{"sequence": "MIDVIEAGLFTTVQDGGRFGYRHAGVPAGGAMDAWAYRLANALVGNNGDEAVLEATIAGPTLRFRVEAVVAVCGGDFPCTLNGRTFALWKPMAVEPGDVLEVGVCRTGFRAYIAVSGGIDVPPVMGSRSTYVPAQLGGLSGRPLQRGDALPVGVTHGRRVIGRMRWGLASAARRYIGGKTKTVRAVPGPEYDEFTPASRRQFFAARYEVTTQSDRIGYRLSGPTLALVREREMVSEAVVFGTVQVPASGQPIVLMADSQTTGGYPRIAQVAAVDLPILAQARPGDFIQFQPIGPEEAMWLYKEQQQRLARWITAIRRQWEGER", "soluble on expression in E. coli": "not soluble"}
{"sequence": "MLIYHNCTTDRTMRKMRHEWGTFGIRIADAFSTMNIDVFDKGEKYNGNEKVELTTTVKNYKPKNNTRKWPAVEAKYLGVVYDNHNKLPKNCEGQKVEVQMMKIDKEQYGWVITDILNE", "soluble on expression in E. coli": "not soluble"}
{"sequence": "MGSDKIHHHHHHMCYTPACLFSRVLHSSTRWRGGRVVECVALEKRSTRKGTVGSNPTLFAKKEAPRPAQQAGFSFVDSVSQVSGAAIVQPMTRFAWTPETIPWQETAPDGTRYALLEGVREAGTFTYAFFLPAGFWDEAHWHSTDARVFVMQGELRLGYGDRLDKEAATSYPAGSALLVPAEHRHHDGAEVDTLILGVASGSWFTRYVNSANQGSAGTV", "soluble on expression in E. coli": "not soluble"}
{"sequence": "MEKNLYDTNKLIELYKNKESMSGYTTILNVIEFPKALEFNLTVLYLSKSDYRLAIKISTELLKIGEPVPAVYTLISAIANKQRFKGCNAGQTFYAS", "soluble on expression in E. coli": "not soluble"}
{"sequence": "MGSDKIHHHHHHMNLTELMERIPHLREILNIVREAFKDYDDPAHDISHTFRVMENASEIASREKCDLQKAIIAALLHDIKRPHEALTGVDHAESGAEYASGLLPTMGFDISFVAEVSKAIRSHRYSGGLTPTSLTGKILQDADRLDAIGAVAIARVFSYSGKTGTPLHSLQFSPRSSYSGNSRSSINHFHEKILKIRPETFWTETARKMAEDRYSFVVEFVQRFLAEWGQI", "soluble on expression in E. coli": "not soluble"}
{"sequence": "GSMHEYSVVSSLIALCEEHAKKNQAHKIERVVVGIGERSAMDKSLFVSAFETFREESLVCKDAILDIVDEKVELECKDCSHVFKPNALDYGVCEKCHSKNVIITQGNEMRLLSLEMLAE", "soluble on expression in E. coli": "soluble"}
{"sequence": "EFKDVFIEKQKGEILGVVIVESGWGSILPTVIIANMMHGGPAEKSGKLNIGDQIMSINGTSLVGLPLSTCQSIIKGLKNQSRVKLNIVRCPPVTTVLIRRPDLRYQLGFSVQNGIICSLMRGGIAERGGVRVGHRIIEINGQSVVATPHEKIVHILSNAVGEIHMKTMPAAMYRLLTAQEQPVYI", "soluble on expression in E. coli": "soluble"}
{"sequence": "MSNSSAHSSFGTSNDSFSSVQSVILPPVGPFGQKKRTFEYIGVTLVVDKLKLAEWMNGIGKLFGSAELRDNVTNLHMQLVPVIDTLKKVSHLSSEKTKKEIMTLIEEYKTLVVVCENMLDRMEKSADFHSTDMLNDPVLEKQE", "soluble on expression in E. coli": "not soluble"}
{"sequence": "MSECSASTSQLSTFCVNEIPWKLVPQTCDEFSEYEFIDEKYRRLSDVESFVWKWSPCGRYGIDLPGGRDVINQQLRDRMAVFDLHTNKWTLYTMDRGAFEIPRVCFLYWARNDIIGTITLVKDYEAGPDDEIPLKFKQSFFYVSHETQTLVYSGSCKYRTNKTIVASYWYHIFENRRGEPFIDHNNYLWLVFSNGVDSLILLPFIPTSTCFKAKCVSFDMNDIVSQFTGIRVFLDPFVSSHYVPWVYRNDVNFFIRIDSHSFIEEQNRDYGLDPQIDNPETKPHRGVFQLRVNLKDVIEKGEKDAIHAVNPETIETRFNRGDIELWRKISDELRQEHQSIAQHGKMVVVQRWSHFTVDMGLSKKMRTRVADLDARDYCCSHKPRNSSFCCIDLDSERIKAVDALILGTDVVLPHPSGSVFLFRYKENYGMSYCELPFFQPLSLKLKCIQVLKESVEIDPSYYRIKCCLKMQEELEKETAENLCTINIQQ", "soluble on expression in E. coli": "not soluble"}
{"sequence": "SKYVDRVIAEVEKKYADEPEFVQTVEEVLSSLGPVVDAHPEYEEVALLERMVIPERVIEFRVPWEDDNGKVHVNTGYRVQFNGAIGPYLGGLRFAPSVNLSIMKFLGFEQAFKDSLTTLPMGGAKGGSDFDPNGKSDREVMRFCQAFMTELYRHIGPDIDVPAGDLGVGARELGYMYGQYRKIVGGFYNGVLTGKARSFGGSLVRPEATGYGSVYYVEAVMKHENDTLVGKTVALAGFGNVAWGAAKKLAELGAKAVTLSGPDGYIYDPEGITTEEKINYMLEMRASGRNKVQDYADKFGVQFFPGEKPWGQKVDIIMPCATQNDVDLEQAKKIVANNVKYYIEVANMPTTNEALRFLMQQPNMVVAPSKAVNAGGVLVSGFEMSQNSERLSWTAEEVDSKLHQVMTDIHDGSAAAAERYGLGYNLVAGANIVGFQKIADAMMAQGIAW", "soluble on expression in E. coli": "soluble"}
{"sequence": "GPLGSMINAKTKVIGLIGHPVEHSFSPIMHNAAFKDKGLNYVYVAFDVLPENLKYVIDGAKALGIVGFNVTIPHKIEIMKYLDEIDKDAQLIGAVNTIKIEDGKAIGYNTDGIGARMALEEEIGRVKDKNIVIYGAGGAARAVAFELAKDNNIIIANRTVEKAEALAKEIAEKLNKKFGEEVKFSGLDVDLDGVDIIINATPIGMYPNIDVEPIVKAEKLREDMVVMDLIYNPLETVLLKEAKKVNAKTINGLGMLIYQGAVAFKIWTGVEPNIEVMKNAIIDKITK", "soluble on expression in E. coli": "soluble"}
{"sequence": "MNERLIFNPKQLTSARIARGLTMKELAEKAELSRQMISNYESGKTIPKADSILKLISVLQFPRSFFSADTFELYSGATFFRSRSAATKKVRDMQKERLKYVQEVYKVLATYVNFPKVCLPELIEKSIYEITEEEIVKKAEELRKIWGLDLISPVPNLIQLAEQNGVIISEANMSNPTLDAVSRWMIGRPFIMLTDNHESAVRRRFNVAHELGHILLHNGVESIHEYSQTELKNIIEYQANLFAAHFLLPSAAFSDSLLSISLEYYIDLKKYWKVSLQSMIQKIYTLALINDDQRLYLNKRIAKNKWKTKEPYDEQLTIEQPEVFQKVYHMILEHQVIPASQLNQAFKLPKEEIEKILGTAIQTEQDKTEIVLELLRSNK", "soluble on expression in E. coli": "not soluble"}
{"sequence": "MSLEELLERVFSFSDVDKLIDFISYELQKPVILESADFFLLAYNSYYINHFDSANQQTIFSKKCPVQIFERFLKDGIIEKLKTEPEPFRVNKIESIGLNQRVVVSAKHKGEVMGYIWIQELDQNLTDEELDFLYETSFHVGKIIYKTNKLKQEKEEKAEDLIKRAIYQQFTSEKELRREAERINTVLPSMFSVVILHAANGDGEAVEDLKENIRSYLNLRDKVSHVLTIESNIVIVVASFSQKSSVSSAASEFINKLLTHFHFQKIPTPIYIGIGNEYNHLLKLGKSYTEALEVIKAAEITGNQENIPYEYAKLGIYRYLESIEQKNEFLEYENKDLALLKAKDEESSTELLKTLEVYLLNNCKTKPAAEQLFIHQNTLNYRIKQITEMTSIDLSDFRTRCQLYLDLMLMKKKEGGSHHHHHH", "soluble on expression in E. coli": "soluble"}
{"sequence": "MTVAKAIFIKCGNLGTSMMMDMLLDERADREDVEFRVVGTSVKMDPECVEAAVEMALDIAEDFEPDFIVYGGPNPAAPGPSKAREMLADSEYPAVIIGDAPGLKVKDEMEEQGLGYILVKPDAMLGARREFLDPVEMAIYNADLMKVLAATGVFRVVQEAFDELIEKAKEDEISENDLPKLVIDRNTLLEREEFENPYAMVKAMAALEIAENVADVSVEGCFVEQDKERYVPIVASAHEMMRKAAELADEARELEKSNDAVLRTPHAPDGKVLSKRKFMEDPE", "soluble on expression in E. coli": "soluble"}
{"sequence": "MQSSLSFSCGVKSTMAKSPVEVNLIPIEATPETFAEYGQVIEASRDGAGYGPNDAQLDLSKGIPRLYILRLKETPLGFFKITHHAKVTQCLGSIGGDIWYMGVAKPSLIEDDDDGRRVDTVKAKSGHLYIPPEVEEIRVFRFSGPKFVKLHRGTWHAGPLFSGSSIMDFYNLELSNTNVVDHTSHDFTKNNGVSFRFDT", "soluble on expression in E. coli": "not soluble"}
{"sequence": "MGSSHHHHHHSSGLVPRGSHMNVKKFPEGFLWGAATSSYQIEGAWNEDGKGESIWDRFTRIPGKIKNGDSGDVACDHYHRYEQDLDLMRQLGLKTYRFSIAWARIQPDSSRQINQRGLDFYRRLVEGLHKRDILPMATLYHWDLPQWVEDEGGWLSRESASRFAEYTHALVAALGDQIPLWVTHNEPMVTVWAGYHMGLFAPGLKDPTLGGRVAHHLLLSHGQALQAFRALSPAGSQMGITLNFNTIYPVSAEPADVEAARRMHSFQNELFLEPLIRGQYNQATLMAYPNLPEFIAPEDMQTISAPIDFLGVNYYNPMRVKSSPQPPGIEVVQVESPVTAMGWEIAPEGLYDLLMGITRTYGKLPIYITENGAAFDDQPDQSGQVNDPQRVGYFQGHIGAARRALADGVDLRGYYAWSLLDNFEWAEGYSKRFGIIYVDFETQQRTLKQSAQWYRDVIANNGLED", "soluble on expression in E. coli": "soluble"}
{"sequence": "MVCISRFLPVKGVQNINGKELKSIVGKKGKYFIDVRTVGEYRGNHMKGFQNIPLNDLASKANQLDKNKEVIVICQSGMRSKQAAKVLKKLGFQQVINVSGGMNSL", "soluble on expression in E. coli": "not soluble"}
{"sequence": "MGSDKIHHHHHHMKILFVAPGWPRGRLWGELGFKFPSLALAALAAVTPPEWDAALCDESRETIDFNAPCDLVAITAMTPQAPRAYEIAAGFRARGKTVVMGGFHASNLPDEALGHVDAVVVGEGELSWPLLLADFQAGRLQRLYRSPGLLPMASIPVARREIFAGKGYLLTNTLQTTRGCPFDCEFCSVTAFYGRKYRERPVEAVLAELETLRKANSFAFFVDDNLVADRRYALPLFRGMKGMGFKWLSHAPIDFAGDEELMRAAGESGCIGMFVGFESLDQEALAAMGKVTNSSSAFLDQARKFRDHGIGILGSFVLGYDGDTPDSFGRILRFCEEARIEAAIFPILTPYPGTAVRRRLEAEGRITSNDWRDYDMGHVTFRPTGMTARELQDGHDWLNRSFYSFGSMWRRIGKLHRSVQVFGPMNLGFRSAIRKSDKTKAS", "soluble on expression in E. coli": "not soluble"}
{"sequence": "MELNWALFYGLCPSIKMAHVFDKDEIMGLFESFRKARAKTKAEIKAAKVKARQEVKDATKLEIKRNKLLAQQEKALLKEERKGLKAKRKHEEKLAKTTLEQLKAGKFNKDNVLRYAGAARTLAPIVLPLIYRGITLAKEQANTKRALRLGIDPSDLARFAGHGAELKARIEGIRGSVKVSSLPKGFVADVEQRLDDLTFAVDNAEYMTPELRQRSHRSIANDLDQLARQIQDKIGE", "soluble on expression in E. coli": "not soluble"}
{"sequence": "SMKINFLRNKHKIHVQGTDLPDPIATFQQLDQEYKINSRLLQNILDAGFQMPTPIQMQAIPVMLHGRELLASAPTGSGKTLAFSIPILMQLKQPANKGFRALIISPTRELASQIHRELIKISEGTGFRIHMIHKAAVAAKKFGPKSSKKFDILVTTPNRLIYLLKQDPPGIDLASVEWLVVDESDKLFEDGKTGFRDQLASIFLACTSHKVRRAMFSATFAYDVEQWCKLNLDNVISVSIGARNS", "soluble on expression in E. coli": "soluble"}
{"sequence": "MRYTDSRKLTPETDANHKTASPQPIRRISSQTLLGPDGKLIIDHDGQEYLLRKTQAGKLLLTK", "soluble on expression in E. coli": "soluble"}
{"sequence": "SLCDKIFHNLSGKTLVATPYVITKGIYHKSLIYMLSHTEEGAIGLIFNRLVNHVDLKSFFKIKEDKITSQVIVPIYLGGPIEHEKGFFLHSRDYNKNLLLDFHNDLAVSSNLEISEDIAFGQGPKNSLFIVGYTAWKPGQLEEELEKNLWLVMDCNKEFIFADNPENKWHNALKHLGIDEMYFSSQIGNA", "soluble on expression in E. coli": "soluble"}
{"sequence": "MGSDKIHHHHHHMAHVGLAMHFRRDPNDRRKELTVSRFIEVVHKNAVASRNTADAFIKEMLHYNIAEYVAGGDGRTHPLQPTAATIERFTGWVTAHLRTLDHIDGGDRLGRYLDRPDMLATLQPLIADGLLASKPVREPHQTFSLFIWLNNGGIVMDWLMSGIDPDHAGLERIPTSVVSIGDFAKWLKLSRTHLGRKLRTAEELGSIGWLGQRGHSVMWVSHGFYEEYMTVQAAKLAVVDNAFKACFPPSQGDD", "soluble on expression in E. coli": "not soluble"}
